Read-outs that look alike come from different tables or passages of the source.

From PMC12160003 (Cell, 2025) come the findings set out here.

Experiment [1] addresses T1, Flag/His-tagged recombinant human DNMT1 protein (human, UniProt P26358 1-1616). As to the kind of experiment: co-IP.
In experiment [2] the target is T1, Flag/His-tagged recombinant human DNMT1 …. Put plainly: co-IP. This is another data set of the same source.

T1 sequence (P26358 whole entry): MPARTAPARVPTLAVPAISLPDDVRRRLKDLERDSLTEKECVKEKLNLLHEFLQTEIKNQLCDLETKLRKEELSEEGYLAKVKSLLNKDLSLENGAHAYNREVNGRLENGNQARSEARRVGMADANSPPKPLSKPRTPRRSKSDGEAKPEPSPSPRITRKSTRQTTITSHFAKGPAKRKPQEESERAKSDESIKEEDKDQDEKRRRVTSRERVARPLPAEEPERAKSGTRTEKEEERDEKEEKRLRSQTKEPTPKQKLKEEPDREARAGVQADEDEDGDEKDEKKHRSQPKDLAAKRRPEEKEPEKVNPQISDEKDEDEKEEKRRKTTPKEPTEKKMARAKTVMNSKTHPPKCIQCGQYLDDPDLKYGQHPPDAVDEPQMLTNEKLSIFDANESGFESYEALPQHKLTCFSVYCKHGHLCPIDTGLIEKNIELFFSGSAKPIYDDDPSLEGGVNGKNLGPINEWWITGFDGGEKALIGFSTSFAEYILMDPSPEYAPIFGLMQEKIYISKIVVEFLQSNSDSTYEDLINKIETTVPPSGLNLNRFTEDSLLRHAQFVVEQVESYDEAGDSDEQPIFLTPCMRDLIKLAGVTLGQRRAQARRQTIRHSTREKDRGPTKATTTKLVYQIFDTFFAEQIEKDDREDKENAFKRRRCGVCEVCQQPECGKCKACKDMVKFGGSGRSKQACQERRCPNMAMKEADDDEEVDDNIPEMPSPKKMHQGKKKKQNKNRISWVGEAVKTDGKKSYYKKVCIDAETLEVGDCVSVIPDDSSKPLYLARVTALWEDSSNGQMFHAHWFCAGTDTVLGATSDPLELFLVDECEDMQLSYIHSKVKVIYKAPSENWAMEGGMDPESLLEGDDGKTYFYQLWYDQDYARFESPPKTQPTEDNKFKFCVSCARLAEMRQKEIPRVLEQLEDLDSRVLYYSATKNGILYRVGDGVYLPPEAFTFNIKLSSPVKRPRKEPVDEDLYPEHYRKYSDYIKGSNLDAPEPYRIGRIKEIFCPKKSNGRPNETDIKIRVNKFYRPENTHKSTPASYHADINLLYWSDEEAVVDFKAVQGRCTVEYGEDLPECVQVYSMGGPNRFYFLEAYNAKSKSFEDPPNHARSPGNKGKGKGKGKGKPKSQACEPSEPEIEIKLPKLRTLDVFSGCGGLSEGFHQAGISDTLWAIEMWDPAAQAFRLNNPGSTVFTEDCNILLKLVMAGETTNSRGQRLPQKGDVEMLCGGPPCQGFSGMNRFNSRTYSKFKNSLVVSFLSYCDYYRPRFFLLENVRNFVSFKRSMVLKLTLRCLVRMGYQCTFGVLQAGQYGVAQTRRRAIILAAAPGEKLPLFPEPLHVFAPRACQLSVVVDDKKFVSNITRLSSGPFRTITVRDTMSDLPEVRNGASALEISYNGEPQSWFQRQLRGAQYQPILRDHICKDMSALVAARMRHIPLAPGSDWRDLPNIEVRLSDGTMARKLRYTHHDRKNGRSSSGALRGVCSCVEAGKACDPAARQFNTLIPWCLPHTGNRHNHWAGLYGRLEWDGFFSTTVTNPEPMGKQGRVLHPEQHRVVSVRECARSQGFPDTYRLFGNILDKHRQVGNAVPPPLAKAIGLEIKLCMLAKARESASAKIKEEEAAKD

B1: Human Recombinant GST-METTL14 (natural protein, UniProt Q9HCE5 1-456, looked up)
chain: MDSRLQEIRERQKLRRQLLAQQLGAESADSIGAVLNSKDEQREIAETRETCRASYDTSAPNAKRKYLDEGETDEDKMEEYKDELEMQQDEENLPYEEEIYKDSSTFLKGTQSLNPHNDYCQHFVDTGHRPQNFIRDVGLADRFEEYPKLRELIRLKDELIAKSNTPPMYLQADIEAFDIRELTPKFDVILLEPPLEEYYRETGITANEKCWTWDDIMKLEIDEIAAPRSFIFLWCGSGEGLDLGRVCLRKWGYRRCEDICWIKTNKNNPGKTKTLDPKAVFQRTKEHCLMGIKGTVKRSTDGDFIHANVDIDLIITEEPEIGNIEKPVEIFHIIEHFCLGRRRLHLFGRDSTIRPGWLTVGPTLTNSNYNAETYASYFSAPNSYLTGCTEEIERLRPKSPPPKSKSDRGGGAPRGGGRGGTSAGRGRERNRSNFRGERGGFRGGRGGAHRGGFPPR
On to B1, for which, in experiment [1], the binding result was “binds”.

B2: Flag-tagged recombinant human METTL14 protein (natural protein, UniProt Q9HCE5 1-456, looked up)
chain: MDSRLQEIRERQKLRRQLLAQQLGAESADSIGAVLNSKDEQREIAETRETCRASYDTSAPNAKRKYLDEGETDEDKMEEYKDELEMQQDEENLPYEEEIYKDSSTFLKGTQSLNPHNDYCQHFVDTGHRPQNFIRDVGLADRFEEYPKLRELIRLKDELIAKSNTPPMYLQADIEAFDIRELTPKFDVILLEPPLEEYYRETGITANEKCWTWDDIMKLEIDEIAAPRSFIFLWCGSGEGLDLGRVCLRKWGYRRCEDICWIKTNKNNPGKTKTLDPKAVFQRTKEHCLMGIKGTVKRSTDGDFIHANVDIDLIITEEPEIGNIEKPVEIFHIIEHFCLGRRRLHLFGRDSTIRPGWLTVGPTLTNSNYNAETYASYFSAPNSYLTGCTEEIERLRPKSPPPKSKSDRGGGAPRGGGRGGTSAGRGRERNRSNFRGERGGFRGGRGGAHRGGFPPR
For the molecule B2, the binding result in experiment [2] is on record as “binds”.
